Laboratory results reported in US20230110287A1 (SCOUT BIO, published 2023).

Key:
[1] = target: NGF (added at 10 ng/mL to TF-1 cell cultures); assay: cell-based or functional assay
mouse (murine) NGF [2] = target: T1, mouse (murine) NGF (mouse, UniProt P01139 122-241, limits assumed); assay: ELISA on plate-coated murine NGF (0.1 ug/ml), detection with goat anti-feline IgG-HRP, Abs 450
T1 construct: also called muNGF; beta muNGF
Procedure: ELISA plates were coated with 0.1 μg/ml mouse (murine) NGF (muNGF) and blocked with PBS/0.05% Tween 20/1% BSA. muNGF-coated wells were then incubated for 1 hour at room temperature with antibody preparations, diluted in PBS/0.05% Tween 20/1% BSA (100 μl/well). Antibody concentrations ranging from 100 ng/ml to 1.56 ng/ml were used to establish a binding curve. After washing, the plates were incubated with a 1/5,000 dilution of goat anti-feline IgG-HRP in PBS/0.05% Tween 20/1% BSA. Plates were washed with PBS/0.05% Tween 20 and developed by the addition of TMB substrate. Development was stopped by the addition of 2M H₂SO₄, absorbance read at 450 nm and background values were subtracted from the absorbance readings.

mouse (murine) NGF [3] = target: T1, mouse (murine) NGF; assay: ELISA on murine NGF, Abs 450

T1 sequence (P01139 122-241 limits assumed): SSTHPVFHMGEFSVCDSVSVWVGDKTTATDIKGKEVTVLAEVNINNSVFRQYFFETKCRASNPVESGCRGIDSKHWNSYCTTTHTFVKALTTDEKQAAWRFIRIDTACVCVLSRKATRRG
NGF (added at 10 ng/mL to TF-1 cell cultures), sequence (P01138 122-241): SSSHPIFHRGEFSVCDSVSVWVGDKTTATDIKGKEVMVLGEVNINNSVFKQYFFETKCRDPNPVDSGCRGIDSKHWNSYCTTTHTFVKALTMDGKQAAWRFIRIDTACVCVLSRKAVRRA

B1: felinized anti-NGF monoclonal antibody Fe1 (antibody, V domains shown)
VH: QVQLMESGADLVQPSESLRLTCVASGLSLTNNNVNWVRQAPGKGLEWMGGVWAGGATDYNSALKSRLTITRDTSKNTVFLQMHSLQSEDTATYYCARDGGYSSSTLYAMDAWGQGTTVTVSA
VL: DIEMTQSPLSLSATPGETVSISCRASEDIYNALAWYLQKPGRSPRLLIYNTDTLHTGVPDRFSGSGSGTDFTLKISRVQTEDVGVYFCQHYFHYPRTFGQGTKLELKR
notes: Expressed in CHO cells
- IC50 (read off the curve), NGF-driven TF-1 cell proliferation [1]: ~0.05 µg/mL
- binding result (mouse (murine) NGF [2]): binds

B2: caninized anti-NGF monoclonal antibody SCB01 (antibody, V domains shown)
VH: EVTLQESGPGLVKPSQTLSLTCVVSGLSLTNNNVNWVRQRPGRGLEWMGGVWAGGATDYNSALKSRISITRDTAKNQVSLQLSSMTTEDTAVYYCARDGGYSSSTLYAMDAWGQGTLVTVSS
VL: EIVMTQSPASLSLSQEEKVTITCRASEDIYNALAWYQQKPGQAPKLLIYNTDTLHTGVPSRFSGSGSGTDYSFTISSLEPEDVAVYFCQHYFHYPRTFGAGTKVELK
- binding result (mouse (murine) NGF [3]): binds
